This data set is described as follows: label from the status in PepcDB records.
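Note: failed if final PepcDB status was selected cloned or expressed and not failed if soluble or beyond.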

For “MMITLVLSSFLSRDNIMRGMIYLIIATILAAIGWGASKMVVMTIPGDIFIGTRFLLASFVLAPFCFKQFRTLTGKQILALSGVGLVLSFALQVWVYAVSITTSLAEGAFIMSLAMIIAPIISWILFRNKPNKAFWIALPISILGMILLTLGNGWKLEASQLGFMLSALLLSMHFVLNKRIIGAITPLLSICVQLFVVGLSGCLYASLNSHPSFEITQHAVFWFLISTIVATAIRYLAQTLGQFSVNIETASLIMILEPVWTLVLSISVLHEVVAPQKLIGGAVIFLSLFVYIKLSRRLK”, the protein production result is given as “failed”.

Take “MMKRALTGIQASGKQHLGNYLGVMQSLIELQEQCQLFVFVADLHSITVDFQPQALKQNNFDLVRTLLAVGLDPQKACLFLQSDLLEHSMMGYLMMVQSNLGELQRMTQFKAKKAEQTRNPNGTLNIPTGLLTYPALMAGDILLYQPDIVPVGNDQKQHLELTRDLAQRIQKKFKLKLRLPQFVQNKDTNRIMDLFDPTKKMSKSSKNQNGVIYLDDPKEVVVKKIRQATTDSFNKIRFAPKTQPGVTNMLTILKALLKEPVNQSLTNQLGNDLEAYFSTKSYLDLKNALTEATVNLLVNIQRKREQISREQVFNCLQAGKNQAQATARTTLALFYDGFGLGSQNIK”: the protein production result is “not failed”.

For “MMKRARIIYNPTSGRELFKKSLPEVLQKLEQAGYEASCHATTGPGDATVAARQAVERKFDVVIAAGGDGTLNEVVNGLVGHEFRPKFGIIPVGTTNDFARAIGVPRSIEEAADIICEGKTVPLDLGRANDTYFINIAGGGRITELTYEVPSKLKTVLGQLAYYLKGIEMLPSLHPTYVEIEYDGKLLQEEITMFLITNTRSVGGFEKVAPYASINDGLFDLLVLKKGSIADLIKAATQAQRGEHINNPKVLYTQANRIKVHSPDKLMINLDGEYGGDAPMEFENMYHCLELFVPEHQEDAL”, the protein production result is recorded as “failed”.

In the case of “MMKTQAEINKRLDAYRKGTVDSPYRVKVWTSYDNRFYPMEPGCIDVDKSFHAQCADLTIDYILWLTDNEFRIRGNAKDAINPKKNKLPEGWKIVLNRPSTVPRKGWIAVFTDGTYWEYGHIGMVYDGGNTSRFQILEQNWNGWANKKPSLRWDNYYGLTHFIVPPVAKENKAVSSSKQQAPKQKVKKASTKKALPKITKHITGYNMDKRGYNPKGVVLHNDAGGMNYKQYYNNLVNANYDRLARGIAHAYVDRTGIWEAIDESRIAWHVADGTRPGSGNHDFYGIEVNQSLRASDKEFLENEQAVFQFAAEKLKKWGLPANRNTVRLHNEFSQTSCPHRSMVLHTGLDPLYHSITEHARLKLKDYFIKQIRAYMDGKKPTSKVVVSKPGSASTPATRKDANGYRENPHGTLYKEEHATFTANANIITRYVGPFTNMPQAGILKAGQTIIYDEVMKQDGYIWVGYTAYNGKRVYLPVRKWNRETDSVGKLWGVIS”, the protein production result is “failed”.

Take “MMKVLLLEDVKNLGKAGEVCEVKDGYGNNFLIANQKAKLATNEVINKYKAEVKKKAEKEALEKAQKLQMVETLQTITLTIHKKVGANGSLFGAITKEEITERLKEQHASLNLDKKDIELKHPIKSTGIYEIEVKLGSGVVGVFKIDVVAE”: the protein production result was “failed”.

As to “MMLDALQANGLMQILLLTLMAGLAMPVGAALASVERIHPRWLETEVRHSVIAFGGGALLAAVALVLVPEGTANLPMVGIVVCFAGGGISFMLLDRWLAANGTPASQLVAMLSDFVPEAMALGATFSVSSEGGILLAGIIALQNIPEGFNSYRELVDATHYRGLKIVGALALMALLGPVAGALGYFLLSDAPSVVSGIMLFAAGGILYIIFQDIAPQVRLKKHWAPPLGALAGFLLGVMGEVALSG”, the protein production result is “failed”.

Turning to “MMLNRKDADYYLGKEIMLARIRRGALIPAKVNEEHFWLLIGISSIHSEKIIQALRDYLVFGVSRKDVCERYEVNNGYFSTSLNRLSRISQAAAQMVVYYSLEHHHHHH”, the protein production result is given as “not failed”.

For the sequence “MMLRFSVITYTFGRLTTKKHNKVMKKLIFLFAFCLTVTNIFAQTDPSQLKKEGSDAFNAKNYPVAYAKFSEYLKQTNNQDSAIAYYCGMAADEVKKYAEAVTFFDIAIQKKFNIGNAYARKALALDAMKKTDEYVATLEEGLKVDPDNKTMIKNYGLHYLKAGIAAQKAGKVEEAEECFKKVIPLDHKTYKTNALYSLGVLCYNDGANILKKAAPLANSDADKYAAEKEKADGRFKEAIGYLEEATKVSPEDTKSKTMLSQVQAAMK”, the protein production result was “failed”.

Take “MMLSMNRELIYLMLIFALLVIPRALQRFMVPAPLTCLLFGIGTMLVMGGKPHDDVIVLLSTLGISSLFLFAGLEVDLKALRRELWPLGVHLLVYSVALFCLGWLVWRYVGLTWQVAGLLALALLTPSPGFIIDSIGRLGLNEHERFWVVNKAIASELLALTVLFFVLQASDPWQMALSSGVLVALFVCLPLLFVALDRWVVPQAPGSEFSLLVMVGMIAAYATYKIGVYYLVGAFITGLIARLLHQRMPHLASEENLNAVRLFASFFVPFYFFRAGTNVSPQALSFEALGLGILITMVVLPLRIAVIWVQRRVLFGKGEDFRSSLRVSLALVPTLIFTLVLAGILRDRFSISEVLFGALLLYAAFTTLLPSLIFRLLSAWGVPSRSGDQASRETLPSSGMAG”: the protein production entry is “failed”.

On to “MMLTMGMLERYVLKRTMGALVGALAVLSAMVMLIAFVDIARNVGTRADASFLRLLYLTILQAPATILVLAPFIFLFGTMWAFVELNRRSELIAMRAAGISAWRFIMPAAASSFVIGLLTITLLNPLTTAMTAKFETERDRTMNGYLKEAPKGTWLRQGDDKTQIVIRARARELVDGSVRLRGVSLFVYTLNAKGVMDFTRRIEANEARLEPGFWRLSGVREATPGAGAIRSDSLSIPSNLDDRTASERFNTPQAVALWRLPATIQRTADAGFSAVPFKLRLQQDLATPLLFAAMSVLAAAFSLRLMRLGGLAMLAGSGVALGFGFFFFNELCSTLGRADVLAPFVAAWTPPTVALLVGFTLLCYTEDG”, for which the protein production result is listed as “failed”.

In the case of “MMMKIGDKLKGKITGIKPYGAFVQLENGSIGLIHISEIKTGYIDNIYQTLSVGQEVLVQVVDYDEYSQKASLSLRTLEEEKHHYQHRHRFSNNRLNIGFKPLEEHLPIWVEENLDYLKKDQDESDNQAKD”, the protein production entry was “failed”.

On to “MMMLNPSNGGIEGEKMKKKAKVVVIMGPTGSGKSKLAVDLASHFPVEIINADAMQIYSGLDVLTNKVTVDEQKGVPHHLLGTVSSDMEFTARDFRDFTVPLIEEIVSRNHIPVLVGGTHYYIQAVVSKFLLDDAAEDTEECCADVASVVDQDMVVESVFGRDDLSHGYELLKELDPVAANRIHPNNHRKINQYLSLHASRGVLPSKLYQGKTAENWGCINASRFDYCLICMDAETAVLDRYVEQRVDAMVDAGLLDEVYDIYKPGADYTRGLRQSIGVREFEDFLKIHLSETCAGHLTSLSNDDKVMKENLRKILNFPKDDKLRIMLEEAIDRVKLNTRRLLRRQKRRVSRLETVFGWNIHYIDATEYILSKSEESWNAQVVKPASEIIRCFLETETESGRDPTSGKSIERDLWTQYVCEACGNKILRGRHEWEHHKQGRTHRKRTTRHKNSQTYKNREVQEAEVN”, for which the protein production result was “failed”.

Take “MMMMRAFIAENVRGIYAFDEDGKLVGKRYFTDKPEKILDGLLKGELVKDLEEFLNELREKGYDEFIFEHPELSRKAKELGFNATTEFPNLAGERLRSNPEEFLGENWFDDYYNVGVALTRMRIQEQSGARDKMVIQAIEALDDVDKVINLLVSRLREWYSLHFPELDEILPRHPQYVAFVKAIGHRDNVDEEKLRELGLSDEKIKKIIEAKEKTMGAWMDETDIAIVQHFAEEIDRLYKLRKELEDYIDKAMDDVAPNLKALVGAKLGARLISLAGGLKELAMLPSSTIQVLGAEKALFRHLRTGAKPPKHGVIYQYPAINRSPWWQRGKIARALAGKLAIAARVDYFSGEYIAEELKKELEARIKEIKEKYPRPPKRRKEERKGRKPWKEKKKKKKKKKGGRRLEHHHHHH”: the protein production entry was “failed”.

On to “MMMTRSWAAGGSAVLLALLLGGTITSAHAQSADLVLCDRIAADPADPDKPADVKGVTEIAPGDVSTAIKYCRVASAGSRRAMYGLGRAYAAGGQTAEALAAYRKAADKGSSAAMVELGVAYATGVGLPKDDAKARQLLERAAAAGNPRGISNLAALGGGASSDPVKTRALLAKGAESNAEAQYQLGMMMADGIGGPKDDAGARALFEKAAGQGHPGALMQMGAFAQAGRGGPKDSDAAKAYYEKAAALGNADAKAALKRSDCPYVLKDKRGNMVTNLCF”, for which the protein production entry is “failed”.

As to “MMNGENMDKQTVIGFVVLFCVLELVFYLKKLYQSMALTLAVFGIFSLLFFLLYIPVLSKKAVPYVINYFKPPHQRVREIKVGSDETTDNSIIRLKEKAKTLHPDEGNRISGRSSNSFKDSASCIITIVDDSN”, the protein production result is given as “failed”.

Regarding “MMNTITNIVSYLPYLFAWFLLGYMGIVVLVYTGMLLLSVVQLKREQKLNKQEVYDDYLELTYTKPVSILVPAYNEETGIIETVRSLLSLKYPQTEIVVVNDGSTDQTLEVIIEHFQMVKVGKVIRKQIETEPIKGVYQSTIFPHLLLVDKSNGGKADALNAGLNVSKYPYFCSIDGDSILETDALLKVMKPIVTSRDDEDEVIASGGNVRIANGSDIQMGSVLSVQLAKNPLVVMQVIEYLRAFLMGRIGLSRHNMVLIISGAFSVFAKKWVMEAGGYSKKTVGEDMELVVRLHRLVKEKRLKKRITFVPDPVCWTEAPATFRVLQRQRSRWHRGLMESLWLHRGMTFNPKYGLVGTASIPYFWIVEFFGPVVELMGYLYIVFAFFFGGLYVEFALALFLLFVLYGTVFSMTAVILEGWSLKRYPKVSDMSRLMIFSLFEALWYRPLTVLWRFGAIIEALFRSKAWGEMTRKGLTKAEQKAS”, the protein production entry is “failed”.

“MMNYNTPKVSIVVPSLNSISYIRECIDSILNQTLKDIEILCIDANSTDGTLEVLKNYEKKDKRLRVIISDKKSYGYQMNLGIKEAKGEYLGIVESDDYIKTNMYERLYEIAKKNDCEVVKGDFYIFAYGKTEYVNVLRNSCEDIYNYKVNWNKDIRIFLGSDGINPIGIYRLDLLRTNQIKLNETPGASYQDNGLWFQIFALAKSIYFINEAFYMLRRDNPNSSVKSKEKVYCACEEYDFIRDFLKKHPDLEKTLAPICALHRFGNYMFTLERIDERYKLDFLKRFSQDFRKILKDKELDENLFGNINMQRINKIIENPVIYYYFSRGARARLQNQLVYRLGKVVVEAKSFNKIIKLPFLMLKICLEHNFEHKVYRSIVQFRPDLKLLPLECYLDYHEALVIKEHLSYKFGKLILLSFKGWYKGKIFILPFMLKKRYKEYKNKMILEHHHHHH”: the protein production entry is given as “failed”.

On to “MMPKRFNTSGFDTTLRLPSYYGFLHLTQSLTLNSRVFYGARHVTPPAIRIGSNPVQSLLLFRAPTQLTGWNRSSRDLLGRRVSFSDRSDGVDLLSSSPILSTNPNLDDSLTVIALPLPHKPLIPGFYMPIHVKDPKVLAALQESTRQQSPYVGAFLLKDCASTDSSSRSETEDNVVEKFKVKGKPKKKRRKELLNRIHQVGTLAQISSIQGEQVILVGRRRLIIEEMVSEDPLTVRVDHLKDKPYDKDNAVIKASYVEVISTLREVLKTNSLWRDQDIGDFSYQHLADFGAGISGANKHKNQGVLTELDVHKRLELTLELVKKQVEINKIKETDDGSSLSAKIRVRIDTKRDKIPKHVIKVMEEEFTKLEMLEENYSDFDLTYNYLHWLTVLPWGNFSYENFDVLRAKKILDEDHYGLSDVKERILEFIAVGRLRGTSQGKIICLSGPPGVGKTSIGRSIARALDRKFFRFSVGGLSDVAEIKGHCQTYVGAMPGKMVQCLKSVGTANPLILFDEIDKLGRCHTGDPASALLEVMDPEQNAKFLDHFLNVTIDLSKVLFVCTANVIEMIPGPLLDRMEVIDLSGYVTDEKMHIARDYLVKKTCRDCGIKPEHVDLSDAALLSLIENYCREAGVRNLQKQIEKIYRKVALELVRQGAVSFDVTDTKDTKSLAKTDSEVKRMKVADIMKILESATGDSTESKTKQSGLVAKTFEKVMIDESNLADYVGKPVFQEEKIYEQTPVGVVMGLAWTSMGGSTLYIETTFVEEGLGKGGLHITGQLGDVMKESAQIAHTVARRIMFEKEPENLFFANSKLHLHVPEGATPKDGPSAGCTMITSFLSLAMKKLVRKDLAMTGEVTLTGRILPIGGVKEKTIAARRSQIKTIIFPEANRRDFEELAENMKEGLDVHFVDEYEKIFDLAFNYDH”, for which the protein production result is “failed”.
